B1: TM0556: T. maritima 3-isopropylmalate dehydrogenase (leuB) (protein, UniProt Q9WZ26 1-354, looked up)
3-isopropylmalate …: MKIAVLPGDGIGPEVVREALKVLEVVEKKTGKTFEKVFGHIGGDAIDRFGEPLPEETKKICLEADAIFLGSVGGPKWDDLPPEKRPEIGGLLALRKMLNLYANIRPIKVYRSLVHVSPLKEKVIGSGVDLVTVRELSYGVYYGQPRGLDEEKGFDTMIYDRKTVERIARTAFEIAKNRRKKVTSVDKANVLYSSMLWRKVVNEVAREYPDVELTHIYVDNAAMQLILKPSQFDVILTTNMFGDILSDESAALPGSLGLLPSASFGDKNLYEPAGGSAPDIAGKNIANPIAQILSLAMMLEHSFGMVEEARKIERAVELVIEEGYRTRDIAEDPEKAVSTSQMGDLICKKLEEIW
B2: TM0294: T. maritima glutamate 5-kinase (proB) (protein, UniProt Q9WYD0 1-353, looked up)
Glutamate 5-kinase: MIMKVVVKVGSNLLVGSSGLRKSYIAELCREVARLKSQGHEISIITSGARAAGFTYLGKGKRTQDLHIKQALCAVGQVQLMKVYENAFDFYGIKIAQILLTRDTFSNRKRYLNLRNTLIGLSEFDVVPIVNENDTVATEEITLGDNDTLAAMFSIAWDADFLVLFTTVDGVIDENGKLVERFDESVKLKDMGKSSWGTGGIRSKIESALMASRCGVKATICSGNDVSNLTRFVKGEPVGTVFEPQGRLKAKKAWIAFLSEPAGKIYVNKGAEEALKSGNSLLPVGVTGVEGTFDVGDVVEIVNEEGELVGRGIVNYSSSDLEKIAGHKSSDLKKILGYEGNKVVVHIDNMWVA
B3: TM0574: T. maritima S-adenosylmethionine tRNA ribosyltransferase (queA) (protein, UniProt Q9WZ44 1-335, looked up)
S-adenosylmethionine:tRNA …: MKVSEFDYELPPELIAQEPVEPRDASRLMVLHRKTQRIEHRIFREIIEYLEPGDLLVLNVSKVIPARLYARKKTGASIEILLIERLEEGIWKCLVRPGQKVKKGTELVIDEDLSAVCLGRGEDGTRILKFQPQDDRLIFEKGRTPLPPYIKNEVPLERYQTVYAKEEGSVAAPTAGLHFTPELIEKLKKKGVQFAEVVLHVGIGTFRPVKVEEVEKHKMHEEFYQVPKETVRKLRETRERGNRIVAVGTTTVRTLETIARLPEQEEYVGKTDLFIYPPFEFKLVDALVTNFHLPRSTLLMLVAAFAGKDFVMEAYREAVKRRYRFFSFGDAMLIL
B4: TM0688: T. maritima glyceraldehyde-3-phosphate dehydrogenase (gap) (protein, UniProt P17721 2-333, looked up)
Glyceraldehyde-3-phosphate …: ARVAINGFGRIGRLVYRIIYERKNPDIEVVAINDLTDTKTLAHLLKYDSVHKKFPGKVEYTENSLIVDGKEIKVFAEPDPSKLPWKDLGVDFVIESTGVFRNREKAELHLQAGAKKVIITAPAKGEDITVVIGCNEDQLKPEHTIISCASCTTNSIAPIVKVLHEKFGIVSGMLTTVHSYTNDQRVLDLPHKDLRRARAAAVNIIPTTTGAAKAVALVVPEVKGKLDGMAIRVPTPDGSITDLTVLVEKETTVEEVNAVMKEATEGRLKGIIGYNDEPIVSSDIIGTTFSGIFDATITNVIGGKLVKVASWYDNEYGYSNRVVDTLELLLKM

Columns and labels:
[1] = Fractionation of soluble and insoluble recombinant protein by cell lysis and centrifugation / SDS-PAGE; assay type: physicochemical; conditions: T. maritima proteins expressed in E. coli; SDS-PAGE of soluble and insoluble fractions
Description: E. coli strains MG1655 (F^−lam rph1) and KY1429 (F- araD139 Δ(argF-lac)169 lam flhD5301 fruA25 relA1 rpsL150 zhh50::Tn10 rpoH606(ts) deoC1) were transformed with expression plasmids encoding M36881 (LCK) or M86400 (PLA) for expression profiling. Cells were cultured at 37° C. in Luria Broth containing ampicillin. Protein expression was induced by addition of L-arabinose to a final concentration of 0.1% for 1 hour. KY1429 cells were cultured as above except initial growth was performed at 32° C. followed by a shift to 42° C. for non-permissive expression of rpoH606. Top10 cells (F^−-mcrA Δ(mrr-hsdRMS-mcrBC) φ80lacZΔM15 ΔlacX74 deoR recA1 araD139 Δ(ara-leu)7697 galU galK rpsL endA1 nupG) containing the ibpAB promoter fusion (pHK57), were transformed with expression constructs listed above. Beta-galactosidase assays were performed essentially as described by Miller (24). Fractionation of soluble and insoluble proteins was performed by centrifugation. Cultures were resuspended in 50 mM Tris pH 7.9, 50 mM NaCl, 1 mM MgCl2, 3 mM methionine and sonicated for 2 minutes on ice. Cell debris and insoluble protein aggregates were pelleted by centrifugation at 3000×g for 15 minutes. The soluble fraction was removed and the pellets resuspended in an equivalent volume of lysis buffer.

[2] = pI of T. maritima proteins; assay type: physicochemical, Thermotoga maritima

| Molecule | pre-determined expression characteristics [1] | pI [2] |
| --- | --- | --- |
| B1 | Soluble | 5.44 |
| B2 |  | 6.92 |
| B3 | Soluble | 8.61 |
| B4 | Insoluble | 6.21 |
